This passage reports activity (1-depletion score) results from patent US20230383273.

The test system of this data set is T1, OMNI-68 (Gemmiger sp. An50).
T1 sequence: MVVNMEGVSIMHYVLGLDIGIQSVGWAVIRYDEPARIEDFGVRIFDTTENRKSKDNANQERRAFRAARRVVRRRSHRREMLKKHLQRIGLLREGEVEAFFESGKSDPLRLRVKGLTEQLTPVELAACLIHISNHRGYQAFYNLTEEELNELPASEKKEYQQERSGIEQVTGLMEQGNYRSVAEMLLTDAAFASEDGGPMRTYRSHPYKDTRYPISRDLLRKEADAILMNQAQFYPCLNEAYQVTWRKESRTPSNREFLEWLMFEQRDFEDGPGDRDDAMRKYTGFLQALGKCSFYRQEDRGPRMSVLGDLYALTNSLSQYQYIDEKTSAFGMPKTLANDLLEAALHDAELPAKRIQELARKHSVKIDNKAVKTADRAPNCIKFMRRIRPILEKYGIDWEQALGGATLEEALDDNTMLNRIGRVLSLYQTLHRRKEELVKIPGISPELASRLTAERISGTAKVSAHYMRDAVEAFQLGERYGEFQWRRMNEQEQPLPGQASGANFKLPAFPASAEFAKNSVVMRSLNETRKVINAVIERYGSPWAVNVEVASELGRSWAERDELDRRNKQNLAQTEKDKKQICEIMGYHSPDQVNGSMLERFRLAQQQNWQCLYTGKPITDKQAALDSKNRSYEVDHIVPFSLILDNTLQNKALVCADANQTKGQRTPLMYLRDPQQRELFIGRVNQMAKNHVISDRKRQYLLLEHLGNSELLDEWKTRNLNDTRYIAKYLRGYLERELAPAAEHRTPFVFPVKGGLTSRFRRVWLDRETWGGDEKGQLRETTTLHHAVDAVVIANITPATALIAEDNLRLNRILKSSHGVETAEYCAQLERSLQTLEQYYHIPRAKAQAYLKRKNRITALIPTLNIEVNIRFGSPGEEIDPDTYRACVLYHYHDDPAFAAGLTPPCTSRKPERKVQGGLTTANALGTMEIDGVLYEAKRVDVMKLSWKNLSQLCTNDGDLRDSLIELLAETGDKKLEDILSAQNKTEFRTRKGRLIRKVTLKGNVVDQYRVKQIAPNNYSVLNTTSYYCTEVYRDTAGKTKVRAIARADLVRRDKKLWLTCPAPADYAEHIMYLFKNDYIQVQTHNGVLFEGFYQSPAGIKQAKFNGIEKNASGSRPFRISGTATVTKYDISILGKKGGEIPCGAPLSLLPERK
Kind of data set: cleavage_in_vitro. As to conditions: PAM NNNVTA; TXTL.

The sequence “GGAAGAGCAGAGCCUUGGUCUCGUUUUGGUUCUCUGAUGGGAAACAUCAGAAGUUCUAAGAUAAGGCUUUACGCCGCAGGGUAUGGUGGUAUCCCGAACAAUCCACCGUUUCAGGAAUAGCGCAGCACUGGUUUCCAGUGCUGUUUUU / GGAAGAGCAGAGCCTTGGTCTCNNNNNNNN / NNNNNNNNGAGACCAAGGCTCTGCTCTTCC” registered an activity (1-depletion score) of 0.88.
